Source: the DeepSol protein solubility set

Experiment: soluble on expression in E. coli; label from the status in PepcDB or PDB records

Sequence	soluble on expression in E. coli
LLYIDNIPLVEYNNIIQVEYVVINMLKHGILGLLNYGDMTGYEIMKVFRDSLSFFWTANTSQIYRELNTLKKDGFVTDIVVKQTGKPDKKVFSITESGREELKRWLREYDYGNRNSPLCMKVFFSGELPKEENIERLREIKNEAQQAIERYSSVFETMKIYKGMVARPEDSVYWNMTVEYGIRYMKMLSEWCDCCIKILEDVEK	soluble
LRFQMNTRQFVSCWRSHKDELIATYFDASTDSQVGKAISDLGLNAGQTASLRTVIDGVLTDAFYSLLLGLDGAASIGPVQQPYEIRAEDGSVIRDIEPEAWAQFHDRSA	not soluble
LSPLPRAYQWADGSAYLNHVELVRKARGAEVPASFYTDPLMYQGGSDAFLAPTADIPLRDEAWGLDFEGEVAVVTGDVPLGAPADAKYIRLLMLVNDVTLRGLIPPELAKGFGFFQSKPATAFSPVAVTPDELGDAWDGGKVHLPLLVDYNGAFYGKPDCGVEMQFSFPQLVAHVSKTRELVAGSIVGSGTISNKDRSVGSCCLAEQRMIETIEQGAPKTPFMKVGDTVRIEMRNAAGDSIFGAIEQTVVKHD	not soluble
LTARFTNTELNGYQRLMSYFEEMVKVEDDVCNANKCLLVKLSAEVSDLSEPMRIALRRGADKTIQAMAECIDVGIQDGSIPSGDSALLARQIYYLWNGASLLNKLYQDQEALTQSLTYTQHLLQNTRTCP	not soluble
LTSKLVQAGANVKVIMTESACRFVSPLTFQALSRHEVYTDTFKEQNPSVISHIDAADWADLIIVAPATANVIGKLANGIADDMLTTTLLAATAPVWIAPAMNVHMYDHPAVKRNISVLYQDGYCFIEPSEGYLACGYVGKGRLEEPENIVKLAEKHFAEETSAPLEGKHVVITAGPTREAIDPVRFFTNKSTGKMGYALAEAAVQLGARVILISGPVSLDQPKGLAEFIPVQSAADMREAVLSVYDASDIVIKTAAVADFTPKTVFDHKMKKQDGGMTLELKRTVDILKELGEKKKEQILVGFAAETQDIEHYARKKLAAKNLDLIVANDVKANGAGFGADTNIVTIFFKDGHKRELPIMSKLDVSFEILQEIAALSKQTGERS	not soluble
LTVGDWLDSIRMGRYRDHFAAGGYSSLGMVLRMNAQDVRALGITLMGHQKKILGSIQTMRAQLTSTQG	soluble
LVLQLQINRNPVLFDFNLQLKTNNFANQTSFDELFNEKTNPLNWQFFSKLKVNHLVYEGNDITQLANTLLQSQFNVLQLDLNKSIYRLNLNAMAQRFEHDWVQPLYAKRTQAKIAY	not soluble
LVPEAPAPFEEPLPPEATDQWQDRALCAQTDPEAFFPEKGGSTREAKKICMGCEVRHECLEYALAHDERFGIWGGLSERERRRLKRGII	soluble
LYVGSLHFNITEDMLRGIFEPFGKIDNIVLMKDSDTGRSKGYGFITFSDSECARRALEQLNGFELAGRPMRVGHVTERLDGG	soluble
MAAAAKPNNLSLVVHGPGDLRLENYPIPEPGPNEVLLRMHSVGICGSDVHYWEYGRIGNFIVKKPMVLGHEASGTVEKVGSSVKHLKPGDRVAIEPGAPRENDEFCKMGRYNLSPSIFFCATPPDDGNLCRFYKHNAAFCYKLPDNVTFEEGALIEPLSVGIHACRRGGVTLGHKVLVCGAGPIGMVTLLVAKAMGAAQVVVTDLSATRLSKAKEIGADLVLQISKESPQEIARKVEGQLGCKPEVTIECTGAEASIQAGIYATRSGGTLVLVGLGSEMTTVPLLHAAIREVDIKGVFRYCNTWPVAISMLASKSVNVKPLVTHRFPLEKALEAFETFKKGLGLKIMLKCDPSDQNP	not soluble
MAAAENRVQQVKGILTMAINNGTLWQVIDMRNNERLNCVDMAVRAGSETCAMLITKVAREYAKHRPRSEVEKKFDSMPTTEEDVTISLGPKTADTFDDNYVKELVRQSESASGHAVATKKLSREKISNSLAKGNVAAVQGREYLKMVKRSSSAHSRLMSQRTFSVESGSIDSSEPSTPQLTSPPADHGVFSSVGEKIRNIFGKKPPLHTKSLSVVQTDRIAAPAVRSSSISNKPLSYQTSGNSNEEDHLRLPQHSSSSESPPSEGPSNSGLFRWSSKDKPMTSTVSTANGVRLPPLSLRRRTNSDPKNRDFTSLGGDE	not soluble
MAADLSAYPDRESELTHALAAMRSRLAAAAEAAGRNVGEIELLPITKFFPATDVAILFRLGCRSVGESREQEASAKMAELNRLLAAAELGHSGGVHWHMVGRIQRNKAGSLARWAHTAHSVDSSRLVTALDRAVVAALAEHRRGERLRVYVQVSLDGDGSRGGVDSTTPGAVDRICAQVQESEGLELVGLMGIPPLDWDPDEAFDRLQSEHNRVRAMFPHAIGLSAGMSNDLEVAVKHGSTCVRVGTALLGPRRLRSP	not soluble
MAADYTHFIHRQHAPPEVCLSAFSGHNDALDFPDSEGSPVSQSLIAALQNPALFPHPVEGFQVIETHISWVLLTGPFAYKVKKPVNFGFLDFTSLDAREHFCGEELRLNQRLTEDLYLEVLPITGSAEAPVLGGDGPAIEYVLKMRQFPQSQLLSTLQANSELTTAHIDEMARQIAHFHLNAPKVPAEHEAGTPESVMAPVRQNFEQIRPFLSDKADLQQLEALEAWAETSFERLKPLLAQRKSEGFIRECHGDIHLGNATLIDGKVVIFDCIEFNEPFRFTDVYADTGFLAMDLEDRGLKSLARRFISQYLELTGDYQGLELLNFYKAYRALVRAKVSLFSMPAEATPVQRATTLRQYRNYANLAESYSTIPSRFLAITSGISAVGKSRVAMRLVEALGAVRLRSDVERKRLFGEQQVPNDPHAGIYSSEASSATYARLHEIAETILRAGFPVVIDATYLKRAQRDAAAKVAEATGTPCLIIDCNAPEAVVASWLAQRQADQNDPSDATLEVIANQQATREALTDEELLRSKRIETNESGSLDALVANIRQRLPGLLEHHHHHH	not soluble
MAAEIINGEKVIRKPNALYSDYPRKGGAASTATHYCPGCGHGVLHKLIAEAIDDLGIQDRTVMISPVGCAVFAYYYFDTGNIQVAHGRAPAVGTGVSRAEENAVVISYQGDGDLASIGLNETLQAANRGEKIAVFFVNNTVYGMTGGQMAPTTLIGEKTTTTPEGRDPRFAGYPLHMCELLDNLKAPVFIERVSVSDISHIRKARKAIRKALEVQRDGKGYAFVEVLAACPTNLRMDAEQAVSFINEEMEKEFPLRNFRDDSESTEPLYRGVSDFTTESLEKLYGIEADAGEKPVRADFAPIQTKIAGFGGQGVLSMGIVLAQAGVKANLNASWFPSYGPEQRGGTSNCSVVISGQPIGSPTVYTPDILIAMNRPSLERFEGAVRKGGFILYDSTIGEAETPEGVKAVSVPATEKAKEAGDERAANSFMLGVLLGLNATGLEEEAFKGALAENFAGKPRVIAFNQQMLEAGAEWARENVKI	not soluble
MAAHELKEALETLKETGVRITPQRHAILEYLVNSMAHPTADDIYKALEGKFPNMSVATVYNNLRVFRESGLVKELTYGDASSRFDFVTSDHYHAICENCGKIVDFHYPGLDEVEQLAAHVTGFKVSHHRLEIYGVCQECSKKENH	soluble
MAAIAFIGLGQMGSPMASNLLQQGHQLRVFDVNAEAVRHLVDKGATPAANPAQAAKDAEFIITMLPNGDLVRNVLFGENGVCEGLSTDALVIDMSTIHPLQTDKLIADMQAKGFSMMDVPVGRTSANAITGTLLLLAGGTAEQVERATPILMAMGSELINAGGPGMGIRVKLINNYMSIALNALSAEAAVLCEALNLPFDVAVKVMSGTAAGKGHFTTSWPNKVLSGDLSPAFMIDLAHKDLGIALDVANQLHVPMPLGAASREVYSQARAAGRGRQDWSAILEQVRVSAGMTAKVKM	soluble
MAAIKANEQDAVGMIVRKQSEFEENSHNFNNNGPSLSDMPIEVIHNIVDYVDPINILVIRKVCRKLRNVLDGDPKFKDVHLHQPTSLDMNFSLELDDSWVDYRTNGSGSGLGLFRNSISKTKTKIFVLKHENENENENGTNCTYGF	soluble
MAAMFSNTRSVASSSGHIVEFKAGRSRLEAGSGDTMRKVVAEPKKGLVFIKQSNDMLIHFCWKDRETGAVVDDLIIFPDDAEFKAVPGCPDGKVYMLKFKSGDMKLFWIQDSTPDVDKDLVKKVTDALNKPPTSRPAASRSAGSNANTDRQSAGGSLISSSDMNAPLGGIDQGQLMSLIQSLQGGNSDTLPISSVPRGEDASSEADCEPSTNAAEEGSSNPLSLNNPAIQQIFNNLGRSQKKEVAVSLATALSNETVAEVARNHAEELAPHLPTSDDPARELSETVRTPQFRQAADTLGHALQTGQLGPVVAQFGMDEATVGSANQGDIRGFAANLTKAEGGEDAAKTQNSDDDATREPEPKRNRPDNEDMDVD	not soluble
MAANFWNSSHYKQLLDPEEVDVVHDLDKERGISIDDFKLIKFHMSNHIMKLAQHIKVRQRVVATAITYMRRVYIRKSMVEFEPRLVALTCLYLASKAEESIVQARNLVFYIKRLYPDEYNKYELKDILGMEMKVLEALDYYLVVFHPYRSLSEFLQDAALNDVNMNQITWGIVNDTYKMDLILVHPPYRIALACIYIASVHREKDITAWFEDLHEDMNLVKNIAMEILDFYENYRTITEEKVNSAFSKLALKL	soluble
MAAPPSPGRTADQADQVCTFLFKKPGRKGAAGLRKRPACDPEHGESSSSGDEGDTVAQPPRVAPRPRGLHSWQKAAHGDRRGEEAAPESLDVVYRSTRSAKPVGPEDMGATADFEQDTEKEHHTPTILKCSQRVQEALRGREHDHIYRGIHSYLRYLKPKDTSMGNSSSGMARKGPIRAPGHLRATVRWDYQPDICKDYKETGFCGFGDSCKFLHDRSDYKLGWEIERELEEGRYCICEDENHEVGSEEEEIPFRCFICRQAFQNPVVTKCRHYFCESCALEHFRATPRCYICDQPTGGIFNPAKELMAKLQKLQAAEGKKR	soluble
MAAQATAETPAGELPVIDAVTTHAPEVPPAIDRDYPAKVRVKMETVEKTMKMDDGVEYRYWTFDGDVPGRMIRVREGDTVEVEFSNNPSSTVPHNVDFHAATGQGGGAAATFTAPGRTSTFSFKALQPGLYIYHCAVAPVGMHIANGMYGLILVEPKEGLPKVDKEFYIVQGDFYTKGKKGAQGLQPFDMDKAVAEQPEYVVFNGHVGALTGDNALKAKAGETVRMYVGNGGPNLVSSFHVIGEIFDKVYVEGGKLINENVQSTIVPAGGSAIVEFKVDIPGNYTLVDHSIFRAFNKGALGQLKVEGAENPEIMTQKLSDTAYAVPR	soluble
MAAQESLHVKTPLRDSMALSKVAGTSVFLKMDSSQPSGSFKIRGIGHLCKMKAKQGCKHFVCSSAGNAGMATAYAARRLGLPATIVVPSTTPALTIERLKNEGATVEVVGEMLDEAIQLAKALEKNNPGWVYISPFDDPLIWEGHTSLVKELKETLSAKPGAIVLSVGGGGLLCGVVQGLREVGWEDVPIIAMETFGAHSFHAAVKEGKLVTLPKITSVAKALGVNTVGAQTLKLFYEHPIFSEVISDQEAVTAIEKFVDDEKILVEPACGAALAAVYSGVVCRLQAEARLQTPLASLVVIVCGGSNISLAQLQALKAQLGLNELLK	soluble
MAAQLSEIEVKGVKIPLIYEKSTLMPAVNLQIVFTHAGSITDEIPGLASLSARIFNEGTKTLGSVEFAKELENRAISLSVGSGNETLVFDMSALKSEYLEGLRLTRELLRQPNFTKEALSKVKTDIKASLLRKESDFDYVAQVELHRRLFEGTPLEYPSMGNRESIEKITLKEVEEFWKKRGVLRRAIVLVGGDVELEEVKKDLLSLLSVLPLGEEGELVRYEAKGDLEVKSVIKNTQQAYIYFGSPFSVKNLREDSYKAKVAAFVLGSSGFGSRMMEEIRVKRGLAYSAYWRISLSKSVNYSLGYLQTKLENEQQAIGVVRELIEEFLQKGITEKELEGAKQFLLGSEPLRNETLSQRLSSAFSAYYRGLPLDFAKEELHKIEALTLEEINAYIKEHQELLQLSFSVVTAPKE	not soluble
